Laboratory results taken from US7332318B2, “Calcium-independent phospholipases A2, genes thereof and promoter of the same” (Japan Science and Technology Agency, priority 2001, dated 2008).

Assays:
nerve stem cells = test: Expression of KIDS cPLA2 in nerve stem cells after stimulation; format: cell-based; conditions: kainic acid 10 μM, probe P19-P27, FIG. 14
Method: Then expression of KIDS cPLA 2 of the present invention using nerve stem cells by means of stimulation by kainic acid (10 μM), by kainic acid and CNQX (10 μM KA and 20 μM CNQX) and by glutamic acid (50 μM) was investigated.
The result is shown in FIG. 14 which is a picture as a substitute for a drawing. In FIG. 14, the probe used is P90-P27 of 252 bp (the said sequence is a sequence of a moiety which is common in the full-length cPLA2) in the upper column, P19-P27 of 290 bp (the said sequence contains a sequence specific to KIDS cPLA2 of the present invention) in the second column and G3 PDH and nestin in the lower two columns as controls.
The lanes in FIG. 14 are control and stimulations by kainic acid (KA (10 μM)), by kainic acid and CNQX (KA (10 μM)+CNQX (20 μM)) and by glutamic acid (Glu (50 μM)) from the left side.

[1] = test system: KIDS cPLA2 mRNA in hippocampal dentate gyrus; test: In situ hybridization of brain slices after kainic acid stimulation; format: in vivo, Wister rat; conditions: rat brain, riboprobe C, with or without kainic acid stimulation
Method: Brain of Wister rat of 3 weeks age stimulated by kainic acid was fixed by 4% paraformaldehyde and then a frozen slice was prepared. Each of the radio-labeled riboprobes B, C and D was subjected to a hybridization reaction with the frozen slice and the labeled image of the slice from each probe was confirmed to be same. Then, frozen slice of the brain was prepared again using riboprobe C with or without a kainic acid stimulation and an expression pattern of KIDS cPLA2 mRNA was investigated.

[2] = test system: KIDS cPLA2 protein in hippocampal dentate gyrus; test: Immunohistochemical dyeing of brain slices after kainic acid stimulation; format: in vivo, cPLA2a knockout mouse, C57/Black 6J mouse, Wister rat; conditions: anti-KIDS cPLA2 stump antibody
Method: Brains of cPLA2a knockout mouse and C57/Black 6J mouse of 6-10 weeks age and Wister rat of 3 weeks age stimulated by kainic acid were fixed with 4% paraformaldehyde and then frozen slices were prepared. Immunoreaction of an anti-KIDS cPLA2-specific stump antibody with the brain slice was carried out overnight at 4° C. and expression of KIDS cPLA2 protein was confirmed by a secondary antibody labeled with gold colloid.

[3] = Enzymatic (phospholipase A2) activity of KIDS cPLA2 and cPLA2α on radiolabelled PC substrates; format: biochemical; conditions: difference from the control
Description: Then enzymatic activity of cPLA2α and KIDS cPLA2 of the present invention were investigated. There were used 1-Pam-2-[^14C] arachidonoyl-PC (black dots (●) in FIG. 7), 1-Pam-2-[^14C]Iinoleoyl-PC (black triangles (▴) in FIG. 7), 1-Pam-2-[^14C]oleoyl-PC (black squares (▪) in FIG. 7) and 1-Pam-2-[^14C]palmitoyl-PC (asterisks (*) in FIG. 7) as the substrates for testing the enzymatic activity of each of them. In FIG. 7, the left side is that for KIDS cPLA2 of the present invention while the right side is that for cPLA2α.
Incidentally, the phospholipase A2 activity is given in terms of the difference from the control.

[4] = Calcium dependency of enzymatic activity (EDTA-Ca); format: biochemical; conditions: substrate 1-Pam-2-[^14C]arachidonoyl-PC
Description: Then, calcium dependency of cPLA2α and KIDS cPLA2 of the present invention on enzymatic activity was investigated using 1-Pam-2-[^14C]arachidonoyl-PC as a substrate. EDTA-Ca was used as a calcium source.
The solid lines in FIG. 8 are the case of KIDS cPLA of the present invention while the broken lines therein are the case of cPLA2α. In each of them, the black dots (●) are the data in the absence of EDTA-Ca while the open circles (◯) are those in the presence of EDTA-Ca.
It is noted that, in the case of KIDS cPLA2 of the present invention, an activity of around 40% is maintained even […] while, in the case of cPLA2α, the activity is reduced to an extent of around 10-15% […].

For `C=C(C)[C@H]1CN[C@H](C(=O)O)[C@H]1CC(=O)O` [kainic acid], the “Expression of KIDS cPLA2” value (nerve stem cells) was “specific expression of KIDS cPLA2 of the present invention was confirmed”, the “Expression pattern of KIDS cPLA2 mRNA” value [1] was “drastically induced in the hippocampal dentate gyrus” and the “Expression of KIDS cPLA2 protein” value [2] was “drastically induced in the hippocampal dentate gyrus”.

B1: cPLA2α: cytosolic phospholipase A2 (cPLA2α) of 85 kDa, the conventional full-length enzyme (protein, UniProt P47712 1-749, looked up)
chain: MSFIDPYQHIIVEHQYSHKFTVVVLRATKVTKGAFGDMLDTPDPYVELFISTTPDSRKRTRHFNNDINPVWNETFEFILDPNQENVLEITLMDANYVMDETLGTATFTVSSMKVGEKKEVPFIFNQVTEMVLEMSLEVCSCPDLRFSMALCDQEKTFRQQRKEHIRESMKKLLGPKNSEGLHSARDVPVVAILGSGGGFRAMVGFSGVMKALYESGILDCATYVAGLSGSTWYMSTLYSHPDFPEKGPEEINEELMKNVSHNPLLLLTPQKVKRYVESLWKKKSSGQPVTFTDIFGMLIGETLIHNRMNTTLSSLKEKVNTAQCPLPLFTCLHVKPDVSELMFADWVEFSPYEIGMAKYGTFMAPDLFGSKFFMGTVVKKYEENPLHFLMGVWGSAFSILFNRVLGVSGSQSRGSTMEEELENITTKHIVSNDSSDSDDESHEPKGTENEDAGSDYQSDNQASWIHRMIMALVSDSALFNTREGRAGKVHNFMLGLNLNTSYPLSPLSDFATQDSFDDDELDAAVADPDEFERIYEPLDVKSKKIHVVDSGLTFNLPYPLILRPQRGVDLIISFDFSARPSDSSPPFKELLLAEKWAKMNKLPFPKIDPYVFDREGLKECYVFKPKNPDMEKDCPTIIHFVLANINFRKYRAPGVPRETEEEKEIADFDIFDDPESPFSTFNFQYPNQAFKRLHDLMHFNTLNNIDVIKEAMVESIEYRRQNPSRCSVSLSNVEARRFFNKEFLSKPKA
modifications: full-length
notes: cytosolic phospholipase A2 (cPLA2α) of 85 kDa, the conventional full-length enzyme
In the case of B1, the “Phospholipase A2 Activity” value ([3]; substrate 1-Pam-2-[^14C]arachidonoyl-PC) is reported as 24.4 ± 1.4 pmol/min, the “Phospholipase A2 Activity” value ([3]; substrate 1-Pam-2-[^14C]linoleoyl-PC) is reported as 11.9 ± 1.8 pmol/min and the “Phospholipase A2 Activity” value ([3]; substrate 1-Pam-2-[^14C]oleoyl-PC) is reported as 9.1 ± 1.1 pmol/min. For the same molecule, the “Phospholipase A2 Activity” value ([3]; substrate 1-Pam-2-[^14C]palmitoyl-PC) was 9.8 ± 1.7 pmol/min, the “Activity maintained in the presence of calcium (relative ratio)” value ([4]; EDTA-Ca, FIG. 9) was 10-15% and the “Change of enzymatic activity by the presence of calcium” value ([4]; with and without EDTA-Ca, FIG. 8) was “sudden reduction in the activity by the presence of calcium”.
